Patent US20260049144A1 (Johns Hopkins, published 2026)
Numbering of substitutions follows the chain as printed.

B1: TS1521 (VNAR, part only; not given: atezolizumab heavy and light chains, part only)
heavy, part: ARVDQTPQTITKETGESLTINCVLRDASYALGSTCWYRKKSGSTNEESISIGGRYVETVNSGSKSFSLRINDLTVEDSGTYRCGVDSWCPPVCSWAYAGCGDGTAVTVNGGGGSGGGGSGGGGS
light, part: GGGGSGGGGSARVDQTPQTITKETGESLTINCVVRDTACALVRTFWYRKKSGSTNEESISKGGRYVETVNRGSKSFSLRINDLTVEDSGTYRCKVFGWCRMRDVYGGGTVVTVN
B2: B8 VNAR (VNAR)
VNAR: ARVDQTPQTITKETGESLTINCVLRDASYALGSTCWYRKKSGSTNEESISIGGRYVETVNSGSKSFSLRINDLTVEDSGTYRCGVDSWCPPVCSWAYAGCGDGTAVTVN
notes: VNAR (shark single domain); Measured on yeast and as a soluble fragment (BLI); Not the same as B8 scFv
B3: C7 VNAR (VNAR)
VNAR: ARVDQTPQTITKETGESLTINCVVRDSACALVRTFWYRKKSGSTNEESISKGGRYVETVNSGSKSFSLRINDLTVEDSGTYRCKVFGWCRMRDVYGGGTVVTVN
notes: Not the same as C7 scFv
B4: C4 VNAR (VNAR)
VNAR: B3 VNAR with Q8L, V24L, A28N, V32S, R33S, F35Y, K40S, S48I, K64N
B5: A9 VNAR (VNAR)
VNAR: B3 VNAR with S27T, S61R
notes: VNAR (shark variable new antigen receptor single domain) from nurse sharks immunised with the PD-L1 ECD; Measured on yeast and as a soluble fragment (BLI)
B6: B11 VNAR (VNAR)
VNAR: ARVDQTPQTITKETGESLTINCVLRDSNCALSSTYWYRKKSGSTNEESISKGGRYVETVNSGSKSFSLRINDLTVEDSGTYRCRLFVSWLSDYDCATYYVSGGGTVVTVN

Columns and labels:
[1] = target: PD-L1 on cells (UniProt Q9NZQ7); experiment: equilibrium binding to cells (method 'Cell'; cell line not stated)
PD-L1 on cells, sequence (Q9NZQ7 19-290 limits assumed): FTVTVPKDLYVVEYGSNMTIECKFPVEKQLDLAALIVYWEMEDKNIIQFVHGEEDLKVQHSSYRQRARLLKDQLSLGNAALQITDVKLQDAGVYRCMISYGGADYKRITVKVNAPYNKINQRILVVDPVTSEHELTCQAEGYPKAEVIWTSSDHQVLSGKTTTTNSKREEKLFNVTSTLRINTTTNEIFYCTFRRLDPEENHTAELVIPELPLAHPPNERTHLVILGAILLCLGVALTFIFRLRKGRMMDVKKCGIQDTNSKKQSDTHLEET

[2] = target: PD-L1 on cells (UniProt Q9NZQ7); experiment: cell-based or functional assay
[3] = target: T1, PD-L1 extracellular domain (ECD) (UniProt Q9NZQ7 19-238, limits assumed); experiment: yeast-displayed clone, soluble PD-L1 titration, flow cytometry
T1 construct: extracellular domain; Soluble PD-L1 used in the yeast-display titrations and in BLI; Tags or biotinylation are not described; also called Programmed death-ligand 1; CD274
T1 sequence (Q9NZQ7 19-238 limits assumed): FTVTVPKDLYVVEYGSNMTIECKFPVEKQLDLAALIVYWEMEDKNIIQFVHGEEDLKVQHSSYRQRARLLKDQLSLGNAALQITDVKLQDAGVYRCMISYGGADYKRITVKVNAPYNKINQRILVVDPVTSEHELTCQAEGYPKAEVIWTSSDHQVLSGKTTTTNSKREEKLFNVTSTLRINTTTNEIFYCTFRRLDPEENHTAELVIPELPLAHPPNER

[4] = target: T1, PD-L1 extracellular domain (ECD); experiment: BLI, equilibrium binding, soluble fragment on immobilized PD-L1
[5] = target: T1, PD-L1 extracellular domain (ECD); experiment: BLI competition: B8 VNAR immobilized on the tip, 100 nM PD-L1, soluble B8 VNAR titrated as competitor

Row | Binder | Kd [3] [nM] | Kd [4] [nM] | further results
1 | B1 | – | – | Kd [1]: 0.204 nM; TCR activation (NFAT-induced luminescence), FC50, antibody continuously present [2]: 0.51 nM; TCR activation (NFAT-induced luminescence), potency, antibody removed before addition of effector cells [2]: 0.95 nM; reduction in TCR activation potency, continued presence versus removal of antibody [2]: 1.9 fold
2 | B2 | 97.3 | 33.5 | IC50 (read off the curve) [5]: ~100 nM
3 | B3 | 400 | – | –
4 | B4 | > 1000 | – | –
5 | B5 | 225 | 127 | –
6 | B6 | > 1000 | – | –
